Experimental data taken from patent US20130330358A1, “CRYSTAL STRUCTURE AND PEPTIDE INHIBITORS OF HAUSP DEUBIQUITINASE” (priority 2011, published 2013).
Where two headings read alike, the source gives them in different places.

What was measured:
[1] = biological target: T1, HAUSP TRAF domain HAUSP^62-205 (Homo sapiens, UniProt Q93009); test: biochemical; assay type: binding; settings: for n: Table 1a, ITC fit parameter n, 150 mM NaCl, 10 mM HEPES (pH 7.0)
T1 construct: HAUSP^62-205, and HAUSP^62-560 were fused to a hexahistidine-tag2 and expressed in E. coli BL21 (DE3) RIPL cells; hexahistidine (cleaved yes); made in house; host or cells: E. coli BL21 (DE3) RIPL
T1 sequence (Q93009 62-205): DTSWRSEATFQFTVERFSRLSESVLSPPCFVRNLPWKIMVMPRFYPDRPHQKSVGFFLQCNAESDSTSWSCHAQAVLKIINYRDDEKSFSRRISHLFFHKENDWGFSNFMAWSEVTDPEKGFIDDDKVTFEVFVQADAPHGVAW
Procedure: FIG. 5. Typical isothermal titration calorimetric measurements of the interactions between the HAUSP TRAF domain and the vIRF4 protein derivatives or other peptides. Purified proteins and synthesized peptides were reconstituted in 150 mM NaCl and 10 mM HEPES (pH 7.0). The calorimetric assays were performed using a VPITC system. All experiments were carried out with a stirring speed of 300 rpm at 20° C., and the thermal power was recorded every 10 s. Data were analyzed using the ORIGIN software package (version 7.0). […] Each titration against the HAUSP TRAF domain is indicated in each panel.
Purified proteins and synthesized peptides (Peptron Inc., Deajeon, Korea) were reconstituted in 150 mM NaCl and 10 mM HEPES (pH 7.0). The calorimetric assays were performed using a VP-ITC system (MicroCal Inc., Northampton, Mass.). Samples were degassed by vacuum aspiration for 15 min prior to loading. All experiments were carried out with a stirring speed of 300 rpm at 20° C., and the thermal power was recorded every 10 s. Data were analyzed using the ORIGIN software package (version 7.0) supplied with the instrument. […]

[2] = biological target: T1, HAUSP TRAF domain HAUSP^62-205; test: Size exclusion chromatography, complex formation in 5-fold excess of MDM2^137-152; assay type: binding; settings: in the presence of a 5-fold molar excess of MDM2 peptide

B1: vIRF4^153-216: vIRF4 aa 153-216 fragment, hexahistidine-tagged, expressed in E. coli (protein)
chain: SDTREQSYEEAGAAAPAPPKAPSGLRGRPRKSNRYYNVGDITTEQKAACSVWIPVNEGASTSGM
modifications: left off: small tags and cut ends
notes: vIRF4 aa 153-216 fragment, hexahistidine-tagged, expressed in E. coli
In the case of B1, the Kd ([1]; ITC, 20° C., read-out: Kd) is reported as 540 nM, the n ([1]; 20° C.) is reported as 0.82 ± 0.09 and the “complex formation with the HAUSP TRAF domain” value [2] is reported as “formed a stable complex”.

B2: vIRF4^153-256: vIRF4 aa 153-256 region, hexahistidine-tagged, expressed in E. coli (protein)
chain: SDTREQSYEEAGAAAPAPPKAPSGLRGRPRKSNRYYNVGDITTEQKAACSVWIPVNEGASTSGMGSSGTRQVTQASSFTWRVPGDPPAPSTLTGPSDPHSSGAG
modifications: left off: small tags and cut ends
notes: vIRF4 aa 153-256 region, hexahistidine-tagged, expressed in E. coli
Molecule B2 has a Kd ([1]; HAUSP^62-205 and vIRF4^153-256, ITC, read-out: dissociation constant (Kd)) of 76 nM, a Kd ([1]; ITC, 20° C., read-out: Kd) of 76 nM and a n ([1]; 20° C.) of 1.13 ± 0.18.
